From paper PMC2114023 (The Journal of Cell Biology, 1985) come the findings set out here.

The target of this test is clathrin heavy chain (bovine brain) (bovine, UniProt P49951 1-1675, 3H-labelled by reductive methylation). The test is described as follows: co-IP.
Chain of clathrin heavy chain (bovine brain) (P49951 whole entry): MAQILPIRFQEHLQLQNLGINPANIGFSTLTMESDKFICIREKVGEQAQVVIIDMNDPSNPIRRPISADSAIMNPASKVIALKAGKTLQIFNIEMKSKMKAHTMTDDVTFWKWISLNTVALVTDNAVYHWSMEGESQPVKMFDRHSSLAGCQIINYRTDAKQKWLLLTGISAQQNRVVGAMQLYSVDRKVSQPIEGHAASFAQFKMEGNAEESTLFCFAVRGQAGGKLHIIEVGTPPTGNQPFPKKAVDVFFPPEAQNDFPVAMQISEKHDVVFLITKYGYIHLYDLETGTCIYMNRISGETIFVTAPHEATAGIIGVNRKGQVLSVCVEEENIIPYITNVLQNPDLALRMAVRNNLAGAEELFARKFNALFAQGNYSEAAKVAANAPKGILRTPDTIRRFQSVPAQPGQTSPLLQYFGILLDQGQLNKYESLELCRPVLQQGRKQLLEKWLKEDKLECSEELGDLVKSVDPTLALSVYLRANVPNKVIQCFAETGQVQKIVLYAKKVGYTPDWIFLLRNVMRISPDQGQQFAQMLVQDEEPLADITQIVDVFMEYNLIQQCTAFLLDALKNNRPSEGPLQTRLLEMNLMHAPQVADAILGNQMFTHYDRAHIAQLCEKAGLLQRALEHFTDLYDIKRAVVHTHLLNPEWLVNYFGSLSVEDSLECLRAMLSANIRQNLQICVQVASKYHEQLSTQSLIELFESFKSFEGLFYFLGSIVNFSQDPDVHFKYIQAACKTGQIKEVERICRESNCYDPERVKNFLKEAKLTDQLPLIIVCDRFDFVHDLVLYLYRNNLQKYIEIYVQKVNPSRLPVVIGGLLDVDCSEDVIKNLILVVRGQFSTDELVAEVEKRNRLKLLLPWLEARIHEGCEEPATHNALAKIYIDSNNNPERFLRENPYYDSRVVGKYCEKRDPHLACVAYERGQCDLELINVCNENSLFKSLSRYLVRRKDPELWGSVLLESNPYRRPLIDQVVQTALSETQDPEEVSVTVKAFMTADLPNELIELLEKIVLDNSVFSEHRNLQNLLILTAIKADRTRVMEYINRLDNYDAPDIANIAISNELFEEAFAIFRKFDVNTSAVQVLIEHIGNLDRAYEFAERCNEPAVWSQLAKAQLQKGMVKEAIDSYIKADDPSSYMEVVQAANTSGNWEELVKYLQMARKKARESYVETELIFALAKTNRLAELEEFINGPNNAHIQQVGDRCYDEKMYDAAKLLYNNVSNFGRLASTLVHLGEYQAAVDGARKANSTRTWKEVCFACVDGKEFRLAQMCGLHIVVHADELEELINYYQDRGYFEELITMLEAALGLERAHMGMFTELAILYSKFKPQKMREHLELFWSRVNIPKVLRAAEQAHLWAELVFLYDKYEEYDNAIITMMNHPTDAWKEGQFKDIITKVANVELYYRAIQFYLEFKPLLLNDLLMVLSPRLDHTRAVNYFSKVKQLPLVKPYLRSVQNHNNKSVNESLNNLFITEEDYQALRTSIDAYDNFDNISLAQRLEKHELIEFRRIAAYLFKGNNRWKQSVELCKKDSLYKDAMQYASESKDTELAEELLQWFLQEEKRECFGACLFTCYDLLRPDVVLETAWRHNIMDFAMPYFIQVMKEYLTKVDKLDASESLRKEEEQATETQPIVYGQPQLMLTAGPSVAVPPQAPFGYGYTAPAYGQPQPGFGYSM

B1: clathrin light chain LCa (bovine brain) (natural protein, UniProt P04973 1-243, looked up)
chain: MAELDPFGVPAGGPALGNGVAGEEDPAAAFLAQQESEIAGIENDEAFAILDGGAPGSQPHGEPPGIPDAVDGVTNGDYYQESNGPTDSYAAISQVDRLQSEPESIRKWREEQTERLEALDANSRKQEAEWKEKAIKELDEWYARQDEQLQKTKANNRVADEAFYKQPFADVIGYVTNINHPCYSLEQAAEEAFVNDIEESSPGTEWERVARLCDFNPKSSKQAKDVSRMRSVLISLKQAPLVH
On to B1, for which the binding result was “binds”.
